The supplement of paper PMC7877785
± gives the uncertainty stated by the source.

Test: self-splicing fitness, log relative to wild type (ln ratio); higher = more splicing; Tetrahymena group I intron in knt gene, E. coli kanamycin selection, DiMSum; sequences stand for … in CUCUCU…GGAGGGAAAAGUUAUCAGGCAUGCACCUGGUAGCUAGUCUUUAAACCAAUAGAUUGCAUCGGUUUAAAAGGCAAGACCGUCAAAUUGCGGGAAAGGGGUCAACAGCCGUUCAGUACCAAGUCUCAGGGGAAACUUUGAGAUGGCCUUGCAAAGGGUAUGGUAAUAAGCUGACGGACAUGGUCCUAACCACGCAGCCAAGUCCUAAGUCAACAGAUCUUCUGUUGAUAUGGAUGCAGUUCACAGACUAAAUGUCGGUCGGGGAAGAUGUAUUCUUCUCAUAAGAUAUAGUCGGACCUCUCCUUAAUGGGAGCUAGCGGAUGAAGUGAUGCAACACUGGAGCCGCUGGGAACUAAUUUGUAUGCGAAAGUAUAUUGAUUAGUUUUGGAGUACUCGUGGUCG
How it was run: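 Pooled colonies went to amplicon sequencing on an Illumina HiSeq 2500 after six replicate transformations. The plates were LB agar with 100 μg/mL carbenicillin, 50 μM IPTG and 0.2% rhamnose, with or without 25 μg/mL kanamycin, incubated overnight at 37°C or 30°C. The E. coli BL21(DE3) library had all eight P1ex-region intron nucleotides randomised, the intron placed in the knt kanamycin-resistance gene on pET-22b(+). DiMSum fitness is the error-weighted combination of replicate fold changes, kanamycin against none, normalised to wild type.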

Sequence | self-splicing fitness (ln) (30 °C) | self-splicing fitness (ln) (37 °C)
UGAAAGCAAUAUUACGGAGU | -3.82 ± 0.28 | -2.84 ± 0.19
CUCUAGCAAUAUUACGUGGC | -3.7 ± 0.22 | -2.82 ± 0.24
UGGGAGCAAUAUUACGUUUC | -3.05 ± 0.23 | -1.66 ± 0.4
UUUUAGCAAUAUUACGGAAA | -1.73 ± 0.23 | -1.14 ± 0.34
CACUAGCAAUAUUACGGGGC | -3.4 ± 0.17 | -2.23 ± 0.14
CAUAAGCAAUAUUACGAGCG | 0.0605 ± 0.064 | 0.0464 ± 0.088
CACAAGCAAUAUUACGCUCA | -1.45 ± 0.093 | -0.209 ± 0.097
CGUAAGCAAUAUUACGUUUA | -1.69 ± 0.18 | -1.41 ± 0.18
ACUAAGCAAUAUUACGGGGC | -4.09 ± 0.42 | -2.79 ± 0.24
GUGUAGCAAUAUUACGUCGC | -2.48 ± 0.26 | 
ACCUAGCAAUAUUACGAAAC | -2.68 ± 0.15 | -2.31 ± 0.19
CAGAAGCAAUAUUACGCCUA | -0.835 ± 0.12 | -0.744 ± 0.093
ACACAGCAAUAUUACGUUCC | -2.17 ± 0.088 | -1.29 ± 0.1
AUACAGCAAUAUUACGUCGU | -1.3 ± 0.07 | -0.0346 ± 0.077
ACCCAGCAAUAUUACGCUUC | -2.01 ± 0.076 | -1 ± 0.095
UUCCAGCAAUAUUACGGAAU | -3.81 ± 0.26 | -2.77 ± 0.28
GACGAGCAAUAUUACGCAAA | -3.39 ± 0.27 | -1.96 ± 0.22
GGCCAGCAAUAUUACGUUUA | -2.69 ± 0.19 | -1.87 ± 0.16
GAUUAGCAAUAUUACGUGGG | -3.52 ± 0.32 | -2.47 ± 0.27
UCAAAGCAAUAUUACGUAAA | -1.73 ± 0.13 | -1.94 ± 0.21
AGGAAGCAAUAUUACGCAUU | -3.7 ± 0.35 | -2.13 ± 0.26
UUUGAGCAAUAUUACGUAAU | -3.94 ± 0.43 | -1.65 ± 0.23
CAUGAGCAAUAUUACGCUCA | -3.35 ± 0.17 | -2.18 ± 0.18
GGCAAGCAAUAUUACGUCGG | -3.42 ± 0.2 | -2.47 ± 0.32
CCUUAGCAAUAUUACGGGUG | -1.5 ± 0.065 | -0.759 ± 0.081
UCGAAGCAAUAUUACGGGCC | -2.98 ± 0.38 | -0.79 ± 0.33

Sequence | self-splicing fitness (ln) (30 °C) | self-splicing fitness (ln) (37 °C)
UAUAAGCAAUAUUACGAUAG | -1.4 ± 0.16 | -0.486 ± 0.17
CCACAGCAAUAUUACGCCAC | -3.52 ± 0.27 | -2.54 ± 0.27
UAUAAGCAAUAUUACGUUUU | -3.44 ± 0.23 | -1.85 ± 0.15
UCAAAGCAAUAUUACGAAUU | -3.32 ± 0.25 | -1.65 ± 0.16
UUUGAGCAAUAUUACGCCCU | -1.25 ± 0.41 | -1.96 ± 0.41
GGUAAGCAAUAUUACGCUAG | -4.34 ± 0.36 | -2.92 ± 0.29
UGUCAGCAAUAUUACGUGCU | -3.51 ± 0.25 | -2.23 ± 0.24
UUAAAGCAAUAUUACGAGGC | -3.94 ± 0.37 | -2.36 ± 0.29
AAAUAGCAAUAUUACGCGAU | -3.4 ± 0.2 | -1.47 ± 0.14
AUCUAGCAAUAUUACGACGU | 0.175 ± 0.057 | 0.669 ± 0.069
AAUAAGCAAUAUUACGAAUU | -1.93 ± 0.1 | -1.58 ± 0.12
CUGUAGCAAUAUUACGACCA | -1.45 ± 0.38 | 
GGGCAGCAAUAUUACGAAUA |  | 0.108 ± 0.17
UUUGAGCAAUAUUACGAGCU | -2.69 ± 0.39 | 
UGAAAGCAAUAUUACGGCUU | -1.62 ± 0.13 | -1.81 ± 0.2
UGAUAGCAAUAUUACGGACC | -1.26 ± 0.26 | 
CAGGAGCAAUAUUACGAGAU | -3.82 ± 0.29 | -3.8 ± 0.39
CCGGAGCAAUAUUACGGCAC |  | -0.904 ± 0.44
UUAAAGCAAUAUUACGUCAA | -0.222 ± 0.082 | -0.107 ± 0.095
UGGCAGCAAUAUUACGGGCA | -0.0254 ± 0.11 | -0.0149 ± 0.12
GUCAAGCAAUAUUACGAUGU | -1.75 ± 0.042 | -0.404 ± 0.055
CAGGAGCAAUAUUACGAUUC |  | -1.93 ± 0.38
AUUUAGCAAUAUUACGAUGA | -1.8 ± 0.14 | -0.68 ± 0.15
GCCAAGCAAUAUUACGGUUA | -0.632 ± 0.072 | -0.00086 ± 0.07
ACGAAGCAAUAUUACGGGUG | -1.74 ± 0.069 | -1.36 ± 0.083
AGUGAGCAAUAUUACGAAAC | -2.97 ± 0.38 | -1.2 ± 0.33

Sequence | self-splicing fitness (ln) (30 °C) | self-splicing fitness (ln) (37 °C)
AUAAAGCAAUAUUACGUCGC | -2.83 ± 0.25 | -1.41 ± 0.19
AAUGAGCAAUAUUACGCAGA | -2.8 ± 0.27 | -1.56 ± 0.25
CGGCAGCAAUAUUACGUAAC | -1.24 ± 0.21 | 
GGUCAGCAAUAUUACGCAAG | -1.92 ± 0.17 | -0.453 ± 0.16
AUCGAGCAAUAUUACGUAGA | -3.09 ± 0.32 | -2.7 ± 0.38
UGCGAGCAAUAUUACGGUAC | -4.18 ± 0.3 | -3.26 ± 0.23
CGUAAGCAAUAUUACGCAAA |  | -1.48 ± 0.34
GCACAGCAAUAUUACGGAAG | -3.04 ± 0.13 | -2.11 ± 0.13
AAACAGCAAUAUUACGUACG | -2.54 ± 0.11 | -0.985 ± 0.11
CAUAAGCAAUAUUACGUCUC | -3.68 ± 0.3 | -2.52 ± 0.29
AUGGAGCAAUAUUACGUCCC | 0.0307 ± 0.46 | -0.013 ± 0.42
GGAUAGCAAUAUUACGAGCA | -1.26 ± 0.26 | -1.05 ± 0.14
CUAAAGCAAUAUUACGCCGC | -2.9 ± 0.22 | 
ACUCAGCAAUAUUACGUACG | -2.58 ± 0.14 | -0.864 ± 0.11
ACCUAGCAAUAUUACGUGUC | -4.29 ± 0.29 | -2.24 ± 0.17
AUUCAGCAAUAUUACGUGUA | -1.7 ± 0.11 | -1.02 ± 0.092
GUACAGCAAUAUUACGAUAC | -2.35 ± 0.21 | -2.52 ± 0.22
UACGAGCAAUAUUACGCGAU | -4.05 ± 0.3 | -2.28 ± 0.22
CCUCAGCAAUAUUACGUAUG | -1.75 ± 0.075 | -0.495 ± 0.079
GUUUAGCAAUAUUACGAUCG | -1.61 ± 0.13 | -0.512 ± 0.19
GGUUAGCAAUAUUACGUCCC |  | -2.36 ± 0.34
UUGAAGCAAUAUUACGACGA | 0.302 ± 0.12 | 0.04 ± 0.14
CUCGAGCAAUAUUACGUUGA | -3.86 ± 0.28 | -2.63 ± 0.38
AUUCAGCAAUAUUACGAGUC | -3.54 ± 0.26 | -2.13 ± 0.43
AUCCAGCAAUAUUACGCCAA | -2.78 ± 0.22 | -1.71 ± 0.18
CAACAGCAAUAUUACGGUCA | -1.16 ± 0.066 | -0.339 ± 0.069
